Measurements reported in patent US20250066422A1.

Experiments:
Assay in all cases: ProImmune REVEAL MHC-peptide binding assay
HLA-DR1 (human) = target: HLA-DR1 (human)
HLA-DR7 (human) = target: HLA-DR7 (human)
HLA-DR2 (human) = target: HLA-DR2 (human)
HLA-DR4 (human) = target: HLA-DR4 (human)
HLA-DR5 (human) = target: HLA-DR5 (human)

| Relative Binding Score (% of positive control) (HLA-DR1 (human)) | Relative Binding Score (% of positive control) (HLA-DR7 (human)) | Relative Binding Score (% of positive control) (HLA-DR2 (human)) | Relative Binding Score (% of positive control) (HLA-DR4 (human)) | Relative Binding Score (% of positive control) (HLA-DR5 (human)) | Binder |
| --- | --- | --- | --- | --- | --- |
| 40.1 | 0.27 | 0.05 | 6.12 | 104 | TLGEFLKLDRERAKN (peptide, from a related filing) [BIR-002] |
| 0.87 | 3.69 | 0.28 | 5.89 | 0.12 | TFSYVDPVITSISPKYG (peptide, from a related filing) [MET-005] |
